Data reported in the supplement of paper PMC9170038.

Tested on: MS2 coat protein
Assay: apparent KD of MS2 coat protein; designed switch direction (-1 OFF switch, 1 ON switch): -1; higher = weaker reporter binding
Summary of the method: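 RNA switches sharing common flanks were transcribed by stalled E. coli RNA polymerase on Illumina chips. A doubling series of SNAP-549-labelled MS2 coat protein, from 0.7 or 1.5 nM to 3 µM, was applied in Tris-HCl pH 7.5 buffer with KCl, MgCl2, BSA, DTT, tRNA and Tween-20. Each step lasted 0.8–1.5 h at the bottom of the series and 10–20 min at the top. Normalised cluster fluorescence was curve-fitted, giving apparent KD as the per-design median over clusters.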

[1] = input ligand: microRNA oligo, concentration not stated
[2] = Eterna round: R95, input ligand: FMN 200 uM
[3] = Eterna round: R95, input ligand: microRNA oligo, concentration not stated
[4] = Eterna round: R95, input ligand: none

CCAGCGGACAAAGGAUAUUGCGGUGGCCGGCUCGGCGUACCGAGCCUACAUGAGGAUCACCCAUGUAAGAAGGUUGUCGUAGGA [Mat - Exclusion NG 2 - Mod of JL - D72] (Eterna round: R96, puzzle: Exclusion NG 2)
apparent KD of MS2 coat protein (input ligand: FMN 200 uM): 72.2 nM
apparent KD of MS2 coat protein [1]: 12.2 nM
apparent KD of MS2 coat protein (input ligand: none): 22.7 nM

AGUAGAUCUACGCUUGCGUGGAUCUGCAAUGCAGGUGUUACAUGAGGAUCACCCAUGUCCUCGUUUGCUCGUCUUAU [JL turnoff v2 99.12] (puzzle: Sensor v3, turn-off variant 2)
apparent KD of MS2 coat protein [2]: 209 nM
apparent KD of MS2 coat protein [3]: 664 nM
apparent KD of MS2 coat protein [4]: 222 nM

UUAAUUUAAGGGAUAGAUCAUUACAUGAGGAUCACCCAUGUUGAGGAUAUCAGCUCGUGUAGAGCUGAGAAGGCAACAAUAGGG [ExNG3/14-A3] (Eterna round: R96, puzzle: Exclusion NG 3)
apparent KD of MS2 coat protein (input ligand: FMN 200 uM): 249 nM
apparent KD of MS2 coat protein [1]: 377 nM
apparent KD of MS2 coat protein (input ligand: none): 92.3 nM

AUUUUAAUAUAGGAUAUCGAUUUUAUUAUUUAACGAGAAGGAUAAACAUGAGGAUCACCCAUGUGGUAUCAUGG [JMFs Solution 3] (puzzle: Exclusion 6)
apparent KD of MS2 coat protein [3]: 123 nM

AAUCAGUGUGUGAGGAUAUUGGUGGAAUGACUUAUUAAGAAGGCACAUGAGGAUCACCCAUGUGGGAAGUCACG [JR_BMEx4_Sub016] (Eterna round: R97, puzzle: Brourd's mod of Exclusion 4)
apparent KD of MS2 coat protein (input ligand: FMN 200 uM): 11.6 nM
apparent KD of MS2 coat protein (input ligand: none): 12.8 nM

GUAGAGUGAGGAUAUACGAGAUCGAAAGAUCGGCGAUCCAUACAUGAGGAUCACCCAUGUAGAAGGCACUCUAC [Eli x2 4.002] (Eterna round: R97, puzzle: Exclusion 2)
apparent KD of MS2 coat protein (input ligand: FMN 200 uM): 521 nM
apparent KD of MS2 coat protein (input ligand: none): 26.3 nM

UACAAGCUUUAAAGAUCCUACAUGAGGAUCACCCAUGUGCUCGUCUUAUAACGUACUGUGACGAAAGUCACGGUACG [JL TOV1 3.20] (Eterna round: R97, puzzle: Sensor, turn-off variant 1)
apparent KD of MS2 coat protein (input ligand: FMN 200 uM): 200 nM
apparent KD of MS2 coat protein (input ligand: none): 246 nM

CGGUACUGAGGAUAUACAUGAGGAUCACCCAUGUGUACCAGCUAGCGUACUGGCAUUAGUAGAAGGCGGUGCUG [JL-ex3-3.19 Brourd mod] (puzzle: Exclusion 3)
apparent KD of MS2 coat protein [2]: 15.7 nM
apparent KD of MS2 coat protein [3]: 14.3 nM
apparent KD of MS2 coat protein [4]: 13.7 nM

ACAUGAGGAUCACCCAUGUCCGGCUGGUCUGGUCCGGCUGUCGAGGAUAUAGUCCGGUGUUCGCGCUAGAAGGCGGGAGCUGGA [Aenatbe mod 50] (Eterna round: R96, puzzle: Exclusion NG 3)
apparent KD of MS2 coat protein (input ligand: FMN 200 uM): 144 nM
apparent KD of MS2 coat protein [1]: 62.2 nM
apparent KD of MS2 coat protein (input ligand: none): 85 nM

CUGAGUAGUCAGGAUAUGCUGUACAAAAGUACAGCAGAAGGGACUACAUGAGGAUCACCCAUGUUUACUUCAUG [)mei Ex6 B22] (Eterna round: R97, puzzle: Exclusion 6)
apparent KD of MS2 coat protein (input ligand: FMN 200 uM): 1260 nM
apparent KD of MS2 coat protein (input ligand: none): 821 nM

AAGAAACAGCUAGGAUAUCAGACCAACAUGAGGAUCACCCAUGUCAAGGUCUUUCUUAGUAGGUUUGAGAAGGAGCCAUAAAUA [Xelequriqu] (Eterna round: R96, puzzle: Exclusion NG 2)
apparent KD of MS2 coat protein (input ligand: FMN 200 uM): 11.7 nM
apparent KD of MS2 coat protein [1]: 9.11 nM
apparent KD of MS2 coat protein (input ligand: none): 11.2 nM

UUAGCGUAUGUAAGGAUAUGCUGGUCUAAUGAUCAGCAGAAGGUACAUGAGGAUCACCCAUGUGUAUUCGUUAU [Mod of JL 7 - Jieux - Brourd's mod of Exclusion 4] (Eterna round: R97, puzzle: Brourd's mod of Exclusion 4)
apparent KD of MS2 coat protein (input ligand: FMN 200 uM): 75.9 nM
apparent KD of MS2 coat protein (input ligand: none): 18.4 nM

ACUUAUUGAGGAUAUACAUAAAUUUACAUGAGGAUCACCCAUGUUCUUCUAUGUAUAUAUGUAGAAGGCAGAAGAA [JL-ex5-4.31 Malcolm mod] (Eterna round: R97, puzzle: Exclusion 5)
apparent KD of MS2 coat protein (input ligand: FMN 200 uM): 27 nM
apparent KD of MS2 coat protein (input ligand: none): 18.5 nM

UGAGUGCUGCGAGGAUAUACAUGAGGAUCACCCAUGUGGUGGUGUGAGGCUUUGCCUCACACCAUGUAGAAGGCGCAGUACUCU [JL ENG2 1.08] (Eterna round: R96, puzzle: Exclusion NG 2)
apparent KD of MS2 coat protein (input ligand: FMN 200 uM): 237 nM
apparent KD of MS2 coat protein [1]: 33.3 nM
apparent KD of MS2 coat protein (input ligand: none): 37.2 nM

CAGUACUGAGGAUAUACAUGAGGAUCACCCAUGUGUUCCAGCUAGGAUACUAGCAAGUGUAGAAGGCAGUACUG [Mat - Exclusion 3 - Eli Mod - D7] (Eterna round: R97, puzzle: Exclusion 3)
apparent KD of MS2 coat protein (input ligand: FMN 200 uM): 188 nM
apparent KD of MS2 coat protein (input ligand: none): 396 nM

CUUCUCAGAGUCAGGAUAUAGUCGAAAGGGCUAGACUAGAAGGGACAUGAGGAUCACCCAUGUAAAAUAUCAAA [Razalequ] (puzzle: Brourd's mod of Exclusion 4)
apparent KD of MS2 coat protein [3]: 20.4 nM

AUAAGUGAUAAGGAUAUUACUAGCUGCGGCUAGUGAGAAGGUAUCACAUGAGGAUCACCCAUGUGUUCCAAUAA [Ex6/7-B3] (Eterna round: R97, puzzle: Exclusion 6)
apparent KD of MS2 coat protein (input ligand: FMN 200 uM): 254 nM
apparent KD of MS2 coat protein (input ligand: none): 134 nM

UAUUUGCAAGGAUAUGAUUUAAGUAACAUGAGGAUCACCCAUGUUUUUCCGUUGUUAUGUUCAGAAGGUGCGUGAU [JR_E5_Sub020] (puzzle: Exclusion 5)
apparent KD of MS2 coat protein [3]: 50.9 nM

CAGUACUGAGGAUAUACAUGAGGAUCACCCAUGUGAGUGAUACUAGUGAGGUCGAUUAGUAGAAGGCAGUACUG [Mat X3R4 m27] (Eterna round: R97, puzzle: Exclusion 3)
apparent KD of MS2 coat protein (input ligand: FMN 200 uM): 1110 nM
apparent KD of MS2 coat protein (input ligand: none): 123 nM

AAACUCCCAACCACCGGGAACAUGAGGAUCACCCAUGUGGCGUGACUCAUACGGGCUUUUUGUUCGUUUUAUUCACG [Soesesqu] (puzzle: Sensor v3, turn-off variant 1)
apparent KD of MS2 coat protein [2]: 69 nM
apparent KD of MS2 coat protein [3]: 20.1 nM
apparent KD of MS2 coat protein [4]: 72.5 nM

AAGUACCGUCACGAUAGUGAUGGUACAGCAAGUAGUGAAACAUGAGGAUCACCCAUGUCCUCAAUUGCUCGUCUUAU [Sensor 3 - 82] (puzzle: Sensor v3, turn-off variant 2)
apparent KD of MS2 coat protein [2]: 110 nM
apparent KD of MS2 coat protein [3]: 171 nM
apparent KD of MS2 coat protein [4]: 115 nM

UGAGACUGAGGAUAUACUAGCCCAUAAAGUGGGUAGUGGGUACAUGAGGAUCACCCAUGUAGAAGGCAGCCUCG [Omei Repeat Sequence v2] (Eterna round: R97, puzzle: Exclusion 2)
apparent KD of MS2 coat protein (input ligand: FMN 200 uM): 251 nM
apparent KD of MS2 coat protein (input ligand: none): 29.4 nM

AUUUUGUGAGGAUAUUAGUAGUAAAUGAAUAAAAUUAUUACUGAGAAGGCACAUGAGGAUCACCCAUGUUCCUA [Mat - Exclusion 4 - Eli Mod - D7] (Eterna round: R97, puzzle: Exclusion 4)
apparent KD of MS2 coat protein (input ligand: FMN 200 uM): 175 nM
apparent KD of MS2 coat protein (input ligand: none): 19.2 nM

ACUUACUGAGGAUAUACAUAGAUUUACAUGAGGAUCACCCAUGUUCCUCUAAGUAUAUAUGUAGAAGGCAGAAGAU [Mat - Exclusion 5 - JL Mod - D39] (Eterna round: R97, puzzle: Exclusion 5)
apparent KD of MS2 coat protein (input ligand: FMN 200 uM): 202 nM
apparent KD of MS2 coat protein (input ligand: none): 116 nM

AUAAUGUAAGGAUAUCAGUCGUACAGCUUCGGCUGUACGACUGAGAAGGUACAUGAGGAUCACCCAUGUGGUCA [E4/9-A1] (Eterna round: R97, puzzle: Exclusion 4)
apparent KD of MS2 coat protein (input ligand: FMN 200 uM): 52.2 nM
apparent KD of MS2 coat protein (input ligand: none): 886 nM

GAUCAUGCAGGAUAUACAUGGAACAUUAAAUCAUGAAUUCUACAUGAGGAUCACCCAUGUAGAAGGGCAUGAUC [Omei Ex2 A17] (Eterna round: R97, puzzle: Exclusion 2)
apparent KD of MS2 coat protein (input ligand: FMN 200 uM): 169 nM
apparent KD of MS2 coat protein (input ligand: none): 72.1 nM

CGCUAGUCAGGAUAUACGAACAUGUCAAAAGACGUGAAGGGACAUGAGGAUCACCCAUGUAGAAGGGACUAGCU [salish99_ex2_r3_013] (puzzle: Exclusion 2)
apparent KD of MS2 coat protein [3]: 24.7 nM

GUAAAACAUGAGGAUCACCCAUGUCAGGAUAUACGAUUCCACCCUAACUGCGUGGAACGUAGAAGGGACAUAGG [Exclusion 1 (MOD6.1 Esqu)] (Eterna round: R97, puzzle: Exclusion 1)
apparent KD of MS2 coat protein (input ligand: FMN 200 uM): 57.9 nM
apparent KD of MS2 coat protein (input ligand: none): 221 nM

AGUACUAACACGGGAGUGUUAGUACAAUAAGCUUGUGAAACAUGAGGAUCACCCAUGUCCUCAUAAGCUCGUCUUAU [salish99_TOv2_r3_060] (Eterna round: R96, puzzle: Sensor v3, turn-off variant 2)
apparent KD of MS2 coat protein (input ligand: FMN 200 uM): 14.5 nM
apparent KD of MS2 coat protein [1]: 436 nM
apparent KD of MS2 coat protein (input ligand: none): 17.4 nM

AUUAUGUAAGGAUAUCUUACAUGUGACUUCGGUCACUGUUAAGAGAAGGUACAUGAGGAUCACCCAUGUAGAAC [Ex4-3: 47] (puzzle: Exclusion 4)
apparent KD of MS2 coat protein [3]: 18.1 nM

AGCUGUGGCCGAGGAUAUCCAGCCUUAAAUACCGACGUAUAGUCGGACAUGAGGAUCACCCAUGUGGAGAAGGUGGUCUCAGCA [Eli eng2 - 041] (Eterna round: R96, puzzle: Exclusion NG 2)
apparent KD of MS2 coat protein (input ligand: FMN 200 uM): 93.1 nM
apparent KD of MS2 coat protein [1]: 41.8 nM
apparent KD of MS2 coat protein (input ligand: none): 42.7 nM

UAUUUACGAGGAUAUCGUUUUUUUCACAUGAGGAUCACCCAUGUUGUUUAUGUUGCGUUGCGAGAAGGCGUUUGUU [JR_E5_Sub062] (puzzle: Exclusion 5)
apparent KD of MS2 coat protein [3]: 26.6 nM

GUAAAACAUGUAGGAUAUGCGUGGCAAAGCUAUGCAGAAGGACAUGAGGAUCACCCAUGUUAAAGCGUCUGCGUACAGAUGCAA [Mat - Exclusion NG 1 - Mod of JL - D95] (Eterna round: R96, puzzle: Exclusion NG 1)
apparent KD of MS2 coat protein (input ligand: FMN 200 uM): 143 nM
apparent KD of MS2 coat protein [1]: 30.5 nM
apparent KD of MS2 coat protein (input ligand: none): 30.7 nM

AAGAAACAUGAGGAUCACCCAUGUGAGGAUAUGAGUAAGAAAAGAAAAGAAAGAAGACUCAGAAGGCACAAAGG [salish99-ex1_r3_074] (puzzle: Exclusion 1)
apparent KD of MS2 coat protein [2]: 135 nM
apparent KD of MS2 coat protein [3]: 110 nM
apparent KD of MS2 coat protein [4]: 86.8 nM
